A short description of the series: yeast display, Sf9 membrane polyspecificity reagent, FACS + sequencing; frameworks hold sequencing errors. In short, it runs like this:
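After 36–48 hours of galactose induction, yeast (Saccharomyces cerevisiae BJ5465) displaying a synthetic nanobody library were stained at 4 °C for 1 hour with 10% biotinylated, detergent-solubilized Sf9 membrane reagent. Streptavidin microbeads enriched the stained cells before FACS sorting into low and high (top ~1%) gates on anti-HA and streptavidin fluorescence. Each clone's polyreactivity label reflects its gate of origin.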
As to “QVQLVESGGGLVQAGGSLRFSCAASGFTFSSNAMGWYRQAPGKERELVAAITASGASTYYADSVKGRFTISRDHAKNTVYLQMNSLKPEDTAVYYCAVKTSPRRYYWGQGTQVTVSS”, the “polyreactivity (PSR sort gate)” value is recorded as “high polyreactivity”. Consider “QVQLVESGGGLVQAGGSLRLSCAASGSTFGTYAMGWSRQAPGKERELVAAITSGGSTDYADSVKGRFTISRDNAKNTVYLQMNSLKPEDTAVYYCNATWELLSYYYLFWGYDYWGQGTQVTVSS”, for which the “polyreactivity (PSR sort gate)” value is on record as “low polyreactivity”. On to “QVQLVESGGGLVQAGGSLRLSCAASGSTFFLYAMGWYRQAPGKERELVAAITYTDGDTYYADSVKGRFTISRDIAKKTVYLQMNSLKPEDTAVYYCAADSWVQFDYWGQGTQVSVSS”, for which the “polyreactivity (PSR sort gate)” value is “low polyreactivity”. Then “QVQLVESGGGLVQAGGSLRLSCAASGSTFAHYAMGWYRQAPGKERELVAAITTSGSSTYYADSVKGRFTISRDNAKNTVYLQMNSLKPEDTAVYYCNARGSYYHYRGERNYWGQGTQVTVSS”, with “low polyreactivity”. Then “QVQLQESGGGLVQVGGSLRLSCAASGTIFIYGFLGWNRQAPGKERELVASINLGGITNYADSVKGRFTISRDNAKNTVYLQMISLKPEDTAVYYCAAYVVTGQNYGYWGQGTQVTVSC”, with “low polyreactivity”. Then “QVQLVESGGGLVQAGGSLRLSCAASGRTFVGNGKGWYRLAPGKERELLASISFSGGAGTYYADSVKGRFTISRDNAKYTVYLQMNSLKPEDTAVYYCAKRYVTPTYRRYYWGPGTQVTVSS”, with “high polyreactivity”; and “QVQLVESGGGLVQAGGSLRLSCAASGFIFRYNAMGWYRQAPGKERELVAAISSSGTTNYADSVKGRFTISRDNAKNTVYLQMNSLKPEDTAVYYCAADRRDRSPYYYWGQGTQVTVSS”, with “high polyreactivity”; and “QVQLVESGGGLVQAGGSLRLSCAASGSIFSVYVMGWYRQAPGKESELVAAISWSDRDTYYADSVKGRFTISRDYAKNTVDFQMNSLKPVDTAVYYGAAETFDYDVYIANGSGEYDYWGQVTQVTVSS”, with “high polyreactivity”. For the sequence “QVQLVESGGGLVQAGGSLRLSCAASGSTFVTYTMGWYRQAPGKERELVAAISWSGDTTYADSVKGRFTISRDNAKNTVYLQMNSLKPVDTAVYYCAADDDWSGVEFDYLGQGTQVTVSS”, the “polyreactivity (PSR sort gate)” value was “low polyreactivity”. To “QVQLVESGGGLVQEGGSLRLSCAASGSTFVINAMGWYRQAPGKERELVADIDYRGGSTNYSDSVKGRFTISRDNAKNTVYLQMNSLKPEVTAVYYCNKRYVIRRRGYDYWGQGTQVTVSS” belongs “low polyreactivity”. Then “QVQLVESGGGLVQSGGSLRLSCAASGIIFNDYAMGWYRQAPGKERELVAAISGRGGRTYYADSVKGRFTISRDNAKITVYLQMNSLKPEDTAVYYCAARVLPTDYYWGQGTQVTVSS”, with “high polyreactivity”; and “QGQLVESGGGLVQAGGSLRLSCAPSGGTFEFYTMGWYRQAPGKERELVAVINASGDSTYYADSVKGRFTISRDNAKNTVYLQMNSLKPEDTAVYYCAADHRGEYDYWGQGTQVTVSS”, with “low polyreactivity”; and “QVQLVESGGGLVQAGGSLRLSCAASGRTFHYYVMGWYRQAAGKERELVAAISRSGGNTYYADSVKGRFTISRDNAKNTVYLQMNSLKPEDTAVYYCAAALSAYVKWDYYYWGQGTQVTVSS”, with “low polyreactivity”. As for “QVQFVESGGGLVQAGGSLRLSCAASGSIFSSYAMGWYRQAPGKERELVAVINSGGSTNYADSVKGRFTISRDNAKNTVYLHMNSLKPEDTAVYYCNAYGGTFHNTAAEFDYWGQGTQVTVSS”, the “polyreactivity (PSR sort gate)” value was “low polyreactivity”.

Turning to “QVQLVESGGGLVQAGGSLRLSCAASGSIFYGNAMGRYRQAPGKERELVAGITGYGSPTYYADSVKGRFTISRDNAKNTVYLQMNSLKPEVTAVYYCARLTRTSRGMYDYWGQGTQVTVSS”, the “polyreactivity (PSR sort gate)” value is “high polyreactivity”.

“QVNLVESGGGLVQAGGSLRLSCAASGSIFVGYAMRWYRQAPGKERELVAAISSNSASTYYADSVKGRFTISRDNAKNTLYLQMNSLKPEDTEVYYCATAYRSYWLNDYWGQGTQVTVSS”: the “polyreactivity (PSR sort gate)” value was “low polyreactivity”. Then “QVQLVESGGCLVQAGCSLRLSCAASGRIFGYYVMGWYRQAPGKERELVAAIRSSADSTYYADSVKGRFTISRDNAKNTVYLQMNSLKPEDTAVYYCAAQSPAYYTKSYWGQGTQVTVSS”, with “low polyreactivity”; and “QVQLVESGGGLVQAGGSLRLSCAASGITIKYYTMGWYRQAPGKERELVAAISRSGGSTYYADSVKGRFTISRDNAKNTVYLQMNSLIPEDTAVYYCAAERGAYRGVTFTYGYWGQGTQVTVSS”, with “high polyreactivity”.

On to “QVQLVESGGGLVQAGGSLRLSCAASGRTFLVYARGWYRQAPGKERELVATIRASTGSTYADSVKGRFTISRDNAKNTVYLQMNSLKPEDTAVYYCAAQPRYRHQTYNYWGQGTQVTVSS”, for which the “polyreactivity (PSR sort gate)” value is “high polyreactivity”.

With “QVQLVESGGGLVQAGGSLRLSCAASGSTFQQYAMGWYRQAPGKERELVAAITGSTGSTYYADSVKGRFTISRDNAKNTVYLQMNSLKPEDTAVYYCNAVRYSRYYRKYNYWGQGTQVTVSS”, the “polyreactivity (PSR sort gate)” value is reported as “high polyreactivity”.

On to “QVQLVESGGGLVQAGGRLPLSCAASGSTIYINAMGWYRQPPGKQRELVAPISYSGGSSYFADSVKGRFTISRDYAKNTVYFQKNSLIPEDTRVYYCYARGLQSFYPGYWFRGDFWGQGTQVTVSS”, for which the “polyreactivity (PSR sort gate)” value was “high polyreactivity”. As for “QVQLVESGGGLVQAGGSLRLSCAASGFIFVYYAMGWYRQAPGKERELVAAITSDVNTYYADSVKGRFTISRDNAKNTVYLQMNSLKPEDTAVYYCNADADDYRDYQDYDYWGQGTQVTVSS”, the “polyreactivity (PSR sort gate)” value was “low polyreactivity”.

Take “QVQLQESGGGLVQAGGSLRLSCAASGNISYRTHMGWYRQAPGKERELVASIGGGTTNYADSVKGRFTISRDNAKNTVYLQMNSLKPEDTAVYYCAVVGTTQFRHRYWGQGTQVTASS”: the “polyreactivity (PSR sort gate)” value was “high polyreactivity”. As to “QVQLVESGGGLVQAGGSLRLSCAASGSTLNRNAMGWYRQAPGKERELVAAIRVSGGSTYYADSVKGRFTISRDNAKNTVYLQMNSLKPEDTAVYYCATRYVRARWYGYWGQGTQVTVSS”, the “polyreactivity (PSR sort gate)” value is “high polyreactivity”. On to “QVQLVESWGGLVQAGGSLSLSCAASGSIFAANAMGWYRQAPGKERELVAAISWSGGSTYADSVKRRFTISRDNEKNTVYLQRNSLKPEDTAVYYCAADLCSQYKFGYCGQGTQVTVSS”, for which the “polyreactivity (PSR sort gate)” value is “low polyreactivity”. With “HVQLVETGGGLVQAGGSLRLSCAASGRTFDSYTMGWYRQAPGKERELVADITFTGGSTYYADSVKGRFTISRDNAKNTVYLQMNSLKPEATAVYYCNADREYKWYFRYDYWGQGTQVTVSS”, the “polyreactivity (PSR sort gate)” value is “low polyreactivity”. Take “QVQLVESGGGLVQAGGSLRLSCAAYGRTFHAYAKGWYRQAPGKGRELVAAITRTGTTHYADSVKGRFTISRDNAKNTVYLQMNSLKPEDTAVYYCAAQHVRVDAQFVLQGYDYWGQGTQVTVSS”: the “polyreactivity (PSR sort gate)” value was “low polyreactivity”. To “QVQLVESGGGLVQAGGSLRLSCAASGITLLYNAMGWYRQAPGKERELVAGITGRGGSTYYADSVKGRFTISRDNAKNTVYLQMNSLKPEDNAVYYCAATTDYRYVGRIVIRDDHWGHGTQVTVSS” belongs “low polyreactivity”; to “QVQLVESGGGLDQAGGSLRLSCAASGRTFYRYAMGWYRQEPGKERELVATISRSGGSTYYADSVKGRFTISRDNAKNTVYLQMNSLKPEDTAVYYCNAEGYPWGFYTYDYWGQGTQVTVSS”, “low polyreactivity”; to “QVQLVESGGGLVQAGGSLRLSCAASGSTFRWYAMGWYRQAPGKERELVAAIRRIGSRTYADSVKGRFTISRDNAKNTVYLQMNSLKPEDTAVYYCATRYKYTGYDYWGQGTQVTVSS”, “high polyreactivity”. In the case of “QVQLVESGGGLVQAGGSLRLSCAASGSIFLDNAMGWYRPAPGKERELVAAISRRGGTTYYADSVKGRFTISRDNAKNTVYLQLNSLIPEDTAVYYCAARYPGGKYYSYTYNYWGQGTQVTVSS”, the “polyreactivity (PSR sort gate)” value is given as “high polyreactivity”. With “QVQLVESGGGIVQAGGSLRISCAASGSIFFGYAMGWYRPATGKERELVADITVGGGSPFYADSVKGRFTISRDNEKNTVYLQMNSLKPDDTAVYYCADDYYTQWLTRYDYWGQGTQVTLSS”, the “polyreactivity (PSR sort gate)” value was “low polyreactivity”.

Take “QVQLVESGGGLVQAGGSLRLSCAASGSTFYDNTMGWYRQPPGKERELVAVITTDGDRTYYADSVKGRFTISRDNAKNTVYLQMKSLKPEDTAVYYCNARRAYWVVYPGDDYWGQGTQVSVSS”: the “polyreactivity (PSR sort gate)” value is “low polyreactivity”. As for “QVQLVESGGGLVQAGGSLRLSCAASGRIFNFNGMGWYRQAPGKERELVAAITSGGSTYYADSVKGRFTISRDNAKNTVYLQMNSLKPEDTAVYYCAAQNAWWSNGRSYDYWGQGTQVTVSS”, the “polyreactivity (PSR sort gate)” value is given as “low polyreactivity”.

Take “QVQLVESGGGLVQAGGSLRLSCAAYGRTFYGYAMGWYRQAPGKEREFFAAITWRGGSTYYADSVKGRFSISRDNAKNNVFLQMNSLKPEDTAVYYCAADYRVYTRYGLRKFDYWGQCTQVTVSS”: the “polyreactivity (PSR sort gate)” value is “high polyreactivity”.

For the sequence “QVQLVETGGGLVQAGGSLRLSCAPSGIIISHYAKGWYRQAPGKETELVAAISSRGGSTYYADSVKGRFTISRDIAKNTVYLQMNSLKPEDTAVYYCATTDPYDSSYYIYYYWGQGTQVTVSS”, the “polyreactivity (PSR sort gate)” value is “high polyreactivity”. To “QVQLVESGAGLVQAGGSLRLSCAASGSILTAYAMGWYRQAPVKERELVAAISRGDITKYADSVKGRFTISRDNAKNTVYLQMNSLQPEDTAVYYCAARVPRYSDSTRGRADYYWGQVTQVTVSS” belongs “high polyreactivity”; to “QVQLLESGGGLVLAGGSLRLSCAASGRIFNLYAMGWYRQAPGKERELVAAITDIGSSTYYADSVKGRFTISRDNAKNTVYLQMNSLKPEDTAVYYCNAVVKSSSRGSIAHPGYDYWGQGTQVTVSS”, “high polyreactivity”; to “QVQLVESGGGLVQAGGSLRLSCAATGSILVYYAMGWSRQAPGKERELVAAISSGGSTNYADSVKGRFTISRDNAKNTVYLQMNSLKPEDTAVYYCDKESGWVGAIHYDYWGQGTQVTVSS”, “low polyreactivity”. To “QVQLVESGGGLVQAGGSLRLSCAASGSTSQTYTMGWYRQAPGKERELVAAISLRGGRTYYADSVKGRFTISRDNAKNTVYLQMNSLKPEDTAVYYCNRDYRGPYYYWGQGTQVTVSS” belongs “high polyreactivity”; to “QVQLVESGGGLVQAGGSLRLSCAASGSIFSSNAMGWYIQAPGKERELVAAITSGGSTTYADSVKGRFTISRDNAKNTVNLQMNSLKPEDTAVYYCAADPVYRYYHGWTYLDYDYWGQGTQVTVSS”, “low polyreactivity”.

For the origin of these results see the nanobody polyreactivity screen of Harvey et al. (2022).
